Numbering of substitutions follows the chain as printed.
B1: AS170036 VL1VH1-57H98Q108D (scFv)
scFv: QSALTQPRSVSGSPGQSVTISCAGTSSDVGSENYVSWYQQHPGKAPKLMIYQVNKRASGVPDRFSGSKSGNTASLTISGLQAEDEADYYCASYRSSDQNIVFGGGTKLTVLGGGGSGGGGSGGGGSEVQLVESGGGLVQPGGSLRLSCAASGFTFSSYAMSWVRQAPGKGLEWVSTINSGTGHPYYADSVKGRFTISRDNSKNTLYLQMNSLRAEDTAVYYCAKNFFDGSWFLDPPAMDYWGQGTLVTVSSHHHHHH
notes: also called 65-AS170036 VL1VH1-57H98Q108D
B2: AS170036 VL1VH1-57K98F108A (scFv)
scFv: B1 scFv with Q98F, H183K, D234A
notes: also called 67-AS170036 VL1VH1-57K98F108A
B3: AS170036 VL1VH1-57K98I108D (scFv)
scFv: B1 scFv with Q98I, H183K
notes: also called 71-AS170036 VL1VH1-57K98I108D
B4: AS170036 VL1VH1-57K98I108A (scFv)
scFv: B1 scFv with Q98I, H183K, D234A
notes: also called 70-AS170036 VL1VH1-57K98I108A
B5: AS170036 VL1VH1-57K98Q108S (scFv)
scFv: B1 scFv with H183K, D234S
notes: also called 75-AS170036 VL1VH1-57K98Q108S
B6: AS170036 VL1VH1-57K98Q108D (scFv)
scFv: B1 scFv with H183K
notes: also called 74-AS170036 VL1VH1-57K98Q108D
B7: AS170036 VL1VH1-57K98Q108A (scFv)
scFv: B1 scFv with H183K, D234A
notes: also called 73-AS170036 VL1VH1-57K98Q108A
B8: AS170036 VL1VH1-57K98I108S (scFv)
scFv: B1 scFv with Q98I, H183K, D234S
notes: also called 72-AS170036 VL1VH1-57K98I108S
B9: AS170036 VL1VH1-57M98I108A (scFv)
scFv: B1 scFv with Q98I, H183M, D234A
notes: also called 79-AS170036 VL1VH1-57M98I108A
B10: AS170036 VL1VH1-57H98Q108S (scFv)
scFv: B1 scFv with D234S
notes: also called 66-AS170036 VL1VH1-57H98Q108S
B11: AS170036 VL1VH1-57M98F108D (scFv)
scFv: B1 scFv with Q98F, H183M
notes: also called 77-AS170036 VL1VH1-57M98F108D
B12: AS170036 VL1VH1-57M98F108A (scFv)
scFv: B1 scFv with Q98F, H183M, D234A
notes: also called 76-AS170036 VL1VH1-57M98F108A
B13: AS170036 VL1VH1-57K98F108D (scFv)
scFv: B1 scFv with Q98F, H183K
notes: also called 68-AS170036 VL1VH1-57K98F108D
B14: AS170036 VL1VH1-57K98F108S (scFv)
scFv: B1 scFv with Q98F, H183K, D234S
notes: also called 69-AS170036 VL1VH1-57K98F108S
B15: AS170036 VL1VH1-57M98F108S (scFv)
scFv: B1 scFv with Q98F, H183M, D234S
notes: also called 78-AS170036 VL1VH1-57M98F108S

Biological target: T1, AFP158/HLA-A*02:01 complex (human)
T1 construct: flowed as analyte in SPR
Assay: SPR, crude scFv captured, pMHC analyte;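 further: complex injected at several concentrations over the chip, association phase then running buffer for dissociation, KD derived from on- and off-rates computed from both curves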
Experimental: (§1) The experiment was carried out as follows. The crude scFv protein were captured onto the sensorchip. Different concentrations (320, 160, 40 nM) of AFP158/HLA-A*02:01 complex flowed over the sensorchip surface, and were allowed to bind the antibody fragment for 100 s followed by injection of the running buffer to allow dissociation of the complex. On-rate (kd) and off-rate (kd) were calculated based on association and dissociation curve, and were used to estimate the equilibrium dissociation constant (KD).
(§2) The crude scFv muteins were then subjected to SPR affinity measurement by the method mentioned above.

B1 and B2 are within 1.5-fold of each other in Kd: 2.5 nM for the first, 3.5 nM for the second.

B3 and B4 are within 1.5-fold of each other in Kd: 5.8 nM for the first, 4.3 nM for the second.

First: B5
Second: B6
The Kd of the first is 1.8-fold higher: 6.8 nM for the first, 3.8 nM for the second. The second binds more tightly here.

Going from B7 to B8, the Kd rises from 2.8 nM to 11 nM (3.9-fold). The first binds more tightly here.

Going from B9 to B10, the Kd falls from 8.1 nM to 4 nM (2-fold). The second binds more tightly here.

B11 and B12 are within 1.5-fold of each other in Kd: 6.2 nM for the first, 5.2 nM for the second.

First: B13
Second: B14
The Kd of the first is 2-fold lower: 4.1 nM for the first, 8.3 nM for the second.

Binder B15 has a Kd of 13 nM.

B1 and B2 are within 1.5-fold of each other in koff: 0.00063 s⁻¹ for the first, 0.00079 s⁻¹ for the second.

B3 and B4 are within 1.5-fold of each other in koff: 0.0012 s⁻¹ for the first, 0.00082 s⁻¹ for the second.

B5 and B6 are within 1.5-fold of each other in koff: 0.00086 s⁻¹ for the first, 0.00077 s⁻¹ for the second.

First: B7
Second: B8
The koff of the first is 2.5-fold lower: 0.00053 s⁻¹ for the first, 0.0013 s⁻¹ for the second.

First: B9
Second: B10
The koff of the first is 2.8-fold higher: 0.0018 s⁻¹ for the first, 0.00065 s⁻¹ for the second.

B11 and B12 are within 1.5-fold of each other in koff: 0.0018 s⁻¹ for the first, 0.0013 s⁻¹ for the second.

B13 and B14 are within 1.5-fold of each other in koff: 0.001 s⁻¹ for the first, 0.0014 s⁻¹ for the second.

With B15 the koff was 0.0024 s⁻¹.

B1 and B2 are within 1.5-fold of each other in kon: 250000 M⁻¹ s⁻¹ for the first, 230000 M⁻¹ s⁻¹ for the second.

B3 and B4 are within 1.5-fold of each other in kon: 210000 M⁻¹ s⁻¹ for the first, 190000 M⁻¹ s⁻¹ for the second.

Going from B5 to B6, the kon rises from 130000 M⁻¹ s⁻¹ to 200000 M⁻¹ s⁻¹ (1.5-fold).

Going from B7 to B8, the kon falls from 190000 M⁻¹ s⁻¹ to 120000 M⁻¹ s⁻¹ (1.6-fold).

B9 and B10 are within 1.5-fold of each other in kon: 220000 M⁻¹ s⁻¹ for the first, 160000 M⁻¹ s⁻¹ for the second.

B11 and B12 are within 1.5-fold of each other in kon: 280000 M⁻¹ s⁻¹ for the first, 260000 M⁻¹ s⁻¹ for the second.

First: B13
Second: B14
The kon of the first is 1.6-fold higher: 250000 M⁻¹ s⁻¹ for the first, 160000 M⁻¹ s⁻¹ for the second.

With B15 the kon was 190000 M⁻¹ s⁻¹.

Biological target: T1, AFP158/HLA-A*02:01 complex
Assay: SPR, fold vs AS170036 VL1VH1;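 further: crude scFv muteins immobilised on a sensor chip, peptide–MHC complex passed over at several concentrations, binding then buffer-driven dissociation, KD estimated from on- and off-rates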
Experimental: as §1, §2

First: B1
Second: B2
The Affinity increase of the first is higher: 90.7 fold for the first, 64.3 fold for the second.

Compared with B3, B4 is higher in Affinity increase: 38.7 fold for the first, 52.6 fold for the second.

Going from B5 to B6, the Affinity increase rises from 33 fold to 58.7 fold.

Going from B7 to B8, the Affinity increase falls from 80.4 fold to 21 fold.

First: B9
Second: B10
The Affinity increase of the first is lower: 28 fold for the first, 56.3 fold for the second.

Compared with B11, B12 is higher in Affinity increase: 36.2 fold for the first, 43.4 fold for the second.

Compared with B13, B14 is lower in Affinity increase: 54.5 fold for the first, 27 fold for the second.

For B15, the Affinity increase was 18 fold.

Reference: patent US20240279318A1 (NANJING LEGEND BIOTECH, published 2024)
